In paper PMC6737007:

Key:
[1] = target: second voltage-sensing domain (VSD-II) of the human NaV1.4 channel, residues 554-696, with C660S, C661S and C687S (human) (UniProt P35499); experiment: NMR titration; 15N-labeled VSD-II titrated with unlabeled Hm-3 in buffer B with DPC/LDAO micelles (11/11 mM), pH 5.5, 45°C, 800 MHz; chemical shifts fitted with two sites on VSD-II and Hm-3 partitioning to micelles (K M = 90 μM)
[2] = target: single A140C mutant of the VSD of KVAP channel; experiment: SEC; Superdex 200 in 20-mM Tris-HCl, 150-mM NaCl, pH 5.5, 0.3% DPC, calibrated by Stokes radii; with SDS-PAGE; VSD-KVAP A140C also after 1.5-mM DTT

Substance | KD (K V), cytoplasmic binding site [1] [µM] | KD (K V), extracellular binding site [1] [µM] | stoichiometry N [2]
gating modifier toxin Hm-3 from the crab spider Heriaeus melloteei (peptide) | 7 | 11 | –
single A140C mutant of the VSD of KVAP channel (domain or fragment) | – | – | 2
